According to publication doi:10.1101/2023.01.18.524551 (bioRxiv, 2023):

Molecular target: T1, C3aR R161A (human, UniProt Q16581 1-482, R161^ECL2A)
T1 sequence: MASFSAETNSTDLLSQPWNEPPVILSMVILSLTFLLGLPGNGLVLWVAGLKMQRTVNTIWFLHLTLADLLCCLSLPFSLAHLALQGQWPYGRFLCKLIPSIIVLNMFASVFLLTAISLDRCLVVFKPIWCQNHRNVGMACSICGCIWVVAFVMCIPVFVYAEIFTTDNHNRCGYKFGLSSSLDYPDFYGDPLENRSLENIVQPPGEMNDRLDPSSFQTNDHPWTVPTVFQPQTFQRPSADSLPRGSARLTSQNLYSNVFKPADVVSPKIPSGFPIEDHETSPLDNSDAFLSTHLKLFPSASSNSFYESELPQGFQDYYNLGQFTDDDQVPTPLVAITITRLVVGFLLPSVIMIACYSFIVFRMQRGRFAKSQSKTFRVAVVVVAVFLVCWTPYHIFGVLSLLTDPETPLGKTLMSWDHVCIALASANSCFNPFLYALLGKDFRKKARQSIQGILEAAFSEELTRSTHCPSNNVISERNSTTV
Experiment: cell-based or functional assay

decrease of the potency of C3a against the wild type (GloSensor cAMP assay): > 100 fold
B1: His6-SUMOstar-C3a (recombinant human C3a, residues 1-77) (ligand)
chain: not shown
